Reference: US20120121596A1 (published 2012)

Key:
[1] = target: T1, HER3-ECD-Fc (human, UniProt P21860 20-643, limits assumed); assay: phage solution binding competition ELISA as in Example 1, antigen in solution varied; experiment of paragraph 431 (compared with DL7 and DL11)
T1 construct: extracellular domain; also called HER3-FC; HER3-IgG

[2] = target: T1, HER3-ECD-Fc; assay: phage solution binding competition ELISA; experiment of paragraph 433 (compared with DL3.1-3.7)
[3] = target: T2, hEGFR-ECD (human, UniProt P00533 25-645); assay: phage solution binding competition ELISA as in Example 1, antigen in solution varied
T2 construct: extracellular domain

[4] = target: T3, HER4-ECD-Fc (human, UniProt Q15303 26-651, limits assumed); assay: direct phage ELISA, proteins coated at 2 µg/ml, phage-Fab supernatant, OD450;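 further: specificity test of dual-activity clones, with binding assessed across an antigen panel to check whether each recognises only its cognate target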
T3 construct: extracellular domain
T3 sequence (looked up): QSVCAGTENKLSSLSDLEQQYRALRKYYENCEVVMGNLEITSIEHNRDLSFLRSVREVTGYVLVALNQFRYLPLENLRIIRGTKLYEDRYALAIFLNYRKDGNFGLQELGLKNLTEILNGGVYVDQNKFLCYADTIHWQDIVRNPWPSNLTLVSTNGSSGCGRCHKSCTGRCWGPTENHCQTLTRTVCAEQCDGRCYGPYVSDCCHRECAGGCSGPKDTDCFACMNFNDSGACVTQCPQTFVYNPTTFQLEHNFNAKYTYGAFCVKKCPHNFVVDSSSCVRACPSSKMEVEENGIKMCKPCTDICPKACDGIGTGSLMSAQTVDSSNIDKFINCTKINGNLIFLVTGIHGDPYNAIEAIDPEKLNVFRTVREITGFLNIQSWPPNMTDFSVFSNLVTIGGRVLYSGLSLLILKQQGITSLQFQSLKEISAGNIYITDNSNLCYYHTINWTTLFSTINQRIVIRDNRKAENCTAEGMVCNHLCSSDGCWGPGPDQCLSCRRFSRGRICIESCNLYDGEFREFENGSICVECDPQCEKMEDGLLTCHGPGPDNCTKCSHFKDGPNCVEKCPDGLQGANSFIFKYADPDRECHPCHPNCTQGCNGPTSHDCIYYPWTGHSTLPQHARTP

[5] = target: T4, BSA (bovine, UniProt P02769); assay: as above
T4 construct: also called bovine serum albumin

[6] = target: T5, HER2-ECD (human, UniProt P04626 23-652); assay: as above
T5 construct: extracellular domain

[7] = target: T2, hEGFR-ECD; assay: phage solution binding competition ELISA: hEGFR-ECD in solution varied, unbound phage captured on antigen-coated plate
[8] = target: T6, Xolair; assay: direct phage ELISA, proteins coated at 2 µg/ml, phage-Fab supernatant, OD450;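 further: specificity test of dual-activity clones, with binding assessed across an antigen panel to check whether each recognises only its cognate target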
T6 construct: not shown: the constant regions

[9] = target: T1, HER3-ECD-Fc; assay: as above

T4 sequence (P02769 25-607 limits assumed): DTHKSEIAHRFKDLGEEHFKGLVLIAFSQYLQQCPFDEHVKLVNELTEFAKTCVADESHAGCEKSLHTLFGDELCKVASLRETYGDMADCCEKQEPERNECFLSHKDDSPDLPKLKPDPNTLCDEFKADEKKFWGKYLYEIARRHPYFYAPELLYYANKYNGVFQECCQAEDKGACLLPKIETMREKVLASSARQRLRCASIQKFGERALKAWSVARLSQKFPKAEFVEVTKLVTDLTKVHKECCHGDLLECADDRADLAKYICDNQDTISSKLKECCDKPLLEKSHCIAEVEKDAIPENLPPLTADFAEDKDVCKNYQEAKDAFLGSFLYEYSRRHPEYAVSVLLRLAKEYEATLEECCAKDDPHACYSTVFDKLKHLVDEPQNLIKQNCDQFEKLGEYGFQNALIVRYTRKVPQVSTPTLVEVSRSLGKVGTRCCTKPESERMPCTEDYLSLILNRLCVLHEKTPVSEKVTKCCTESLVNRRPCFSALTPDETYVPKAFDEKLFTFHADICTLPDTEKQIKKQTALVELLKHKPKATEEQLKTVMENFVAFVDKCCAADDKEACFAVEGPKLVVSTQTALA

B1: D1.5-100 (phage-displayed Fab clone) (Fab, V domains shown)
VH: EVQLVESGGGLVQPGGSLRLSCAASGFTFTGNWIHWVRQAPGKGLEWVGEISPSGGYTDYADSVKGRFTISADTSKNTAYLQMNSLRAEDTAVYYCARESRVSYEAAMDYWGQGTLVTVSS
VL: DIQMTQSPSSLSASVGDRVTITCRASQDLATDVAWYQQKPGKAPKLLIYSASFLYSGVPSRFSGSGSGTDFTLTISSLQPEDFATYYCQQSEPEPYTFGQGTKVEIKR
notes: also called DL1.5-100
In the case of B1, the IC50 [1] is reported as 0.1 nM, the IC50 [2] is reported as 4.6 nM and the IC50 [3] is reported as 44 nM. B1: no binding [4]; no binding [5]; no binding [6].

B2: D1.5 (phage-displayed Fab clone) (Fab, V domains shown)
VH: EVQLVESGGGLVQPGGSLRLSCAASGFTFTGNWIHWVRQAPGKGLEWVGEISPSGGYTDYADSVKGRFTISADTSKNTAYLQMNSLRAEDTAVYYCARESRVSYEAAMDYWGQGTLVTVSS
VL: DIQMTQSPSSLSASVGDRVTITCRASQDVSTAVAWYQQKPGKAPKLLIYSASFLYSGVPSRFSGSGSGTDFTLTISSLQPEDFATYYCQQSYPTPYTFGQGTKVEIKR
B2 was tested, and the IC50 [7] was 0.39 nM, the binding result [4] was “no binding” and the binding result [8] was “no binding”. B2: no binding [5]; no binding [9]; no binding [6].
